The results in this text go back to publication PMC12413468.

This experiment has as its target Fluorescent probe peptide NH3+-NLVGRF-[DAP-FAM]-VSPVPE-COO- (human). Description: fluorescence polarisation.

Chain of His6-tagged OSR1 CCT domain (human OSR1 433–527) (O95747 433-527): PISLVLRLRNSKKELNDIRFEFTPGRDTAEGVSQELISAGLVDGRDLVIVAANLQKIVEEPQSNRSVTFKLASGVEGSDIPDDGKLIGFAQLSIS

As to “His6-tagged OSR1 CCT domain (human OSR1 433–527) (from UniProt O95747 433-527) (domain or fragment)”, the dissociation constant Kd is 1500 nM. Turning to “His6-tagged SPAK CCT domain (mouse SPAK 459–556) (from UniProt Q9Z1W9 459-556) (domain or fragment)”, the Kd came to 670 nM.

“Purified SPAK CCT domain D477Q (domain or fragment)” returned a fold decrease in peptide probe binding affinity against wild type of 50 fold.

As a reminder, the Kd is the equilibrium constant for the complex coming apart.
